Columns and labels:
Test in all cases: cell_activity
Details in all cases: E. coli, bisulfite
[1] = target: Split M.SssI (1-272)-HS1 / HS2-M.SssI (273-386), 'wild-type' KFNSE at 297-301 (Spiroplasma sp. (M.SssI)?) (UniProt P15840)
[2] = target: Split M.SssI-HS1/HS2 variant CFESY K297C,N299E,E301Y (Spiroplasma sp. (M.SssI)?) (UniProt P15840)
[3] = target: Split M.SssI-HS1/HS2 variant PFCSY K297P,N299C,E301Y (Spiroplasma sp. (M.SssI)?) (UniProt P15840+P15840)
Sequence of Split M.SssI-HS1/HS2 variant PFCSY K297P,N299C,E301Y (Spiroplasma sp. (M.SssI)?) (P15840 whole entry, stated change not applied, chain 1 of 2): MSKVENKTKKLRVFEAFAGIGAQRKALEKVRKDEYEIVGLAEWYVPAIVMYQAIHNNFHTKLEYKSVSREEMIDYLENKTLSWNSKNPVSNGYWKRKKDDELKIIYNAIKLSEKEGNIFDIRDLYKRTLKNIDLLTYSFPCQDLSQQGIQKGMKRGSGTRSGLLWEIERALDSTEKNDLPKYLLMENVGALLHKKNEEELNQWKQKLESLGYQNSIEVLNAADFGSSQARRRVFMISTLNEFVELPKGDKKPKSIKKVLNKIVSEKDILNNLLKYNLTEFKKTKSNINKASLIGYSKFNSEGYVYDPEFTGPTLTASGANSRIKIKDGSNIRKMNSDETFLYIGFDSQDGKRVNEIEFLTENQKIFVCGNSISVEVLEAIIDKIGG
Sequence of Split M.SssI-HS1/HS2 variant PFCSY K297P,N299C,E301Y (Spiroplasma sp. (M.SssI)?) (P15840 whole entry, stated change not applied, chain 2 of 2): as the sequence (P15840 whole entry, stated change not applied, chain 1 of 2) above

Sequence of Split M.SssI (1-272)-HS1 / HS2-M.SssI (273-386), 'wild-type' KFNSE at 297-301 (Spiroplasma sp. (M.SssI)?) (P15840 other isoform, or with tags, fused parts or gaps, chain 1 of 2): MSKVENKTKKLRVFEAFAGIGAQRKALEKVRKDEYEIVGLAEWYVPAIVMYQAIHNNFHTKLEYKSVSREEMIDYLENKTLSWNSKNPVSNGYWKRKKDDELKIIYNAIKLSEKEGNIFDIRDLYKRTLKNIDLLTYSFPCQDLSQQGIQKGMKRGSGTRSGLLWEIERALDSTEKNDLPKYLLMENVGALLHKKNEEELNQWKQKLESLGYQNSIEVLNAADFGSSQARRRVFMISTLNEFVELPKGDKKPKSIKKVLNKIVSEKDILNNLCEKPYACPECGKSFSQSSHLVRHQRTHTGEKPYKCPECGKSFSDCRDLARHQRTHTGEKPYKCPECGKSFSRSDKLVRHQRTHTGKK
Sequence of Split M.SssI (1-272)-HS1 / HS2-M.SssI (273-386), 'wild-type' KFNSE at 297-301 (Spiroplasma sp. (M.SssI)?) (P15840 other isoform, or with tags, fused parts or gaps, chain 2 of 2): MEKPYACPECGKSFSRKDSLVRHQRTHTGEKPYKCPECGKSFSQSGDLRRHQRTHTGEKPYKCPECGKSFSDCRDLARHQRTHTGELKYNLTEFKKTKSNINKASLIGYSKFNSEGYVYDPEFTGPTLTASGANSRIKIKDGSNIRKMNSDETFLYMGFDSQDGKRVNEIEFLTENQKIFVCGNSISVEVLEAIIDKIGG
Sequence of Split M.SssI-HS1/HS2 variant CFESY K297C,N299E,E301Y (Spiroplasma sp. (M.SssI)?) (P15840 other isoform, or with tags, fused parts or gaps K297C N299E E301Y, chain 1 of 2): as the sequence (P15840 other isoform, or with tags, fused parts or gaps, chain 1 of 2) above
Sequence of Split M.SssI-HS1/HS2 variant CFESY K297C,N299E,E301Y (Spiroplasma sp. (M.SssI)?) (P15840 other isoform, or with tags, fused parts or gaps K297C N299E E301Y, chain 2 of 2): as the sequence (P15840 other isoform, or with tags, fused parts or gaps, chain 2 of 2) above, with K111C, N113E, E115Y counted along it

| Substance | activity [1] | activity ([2]; 70-80% by restriction protection, also target-only methylation in HEK293) | activity [3] | activity ([1]; all off-target CpGs) | activity ([2]; all off-target CpGs) | activity ([3]; all off-target CpGs) |
| --- | --- | --- | --- | --- | --- | --- |
| HS1/HS2 target site (FspI CpG flanked by HS1 and HS2 sites, plasmid) | 94.1 % methylated | 42.1 % methylated | 78.9 % methylated | – | – | – |
| Non-target site (SnaBI CpG or surrounding CpGs, no ZF sites, plasmid) | – | – | – | 49.5 % methylated | 0.71 % methylated | 0.84 % methylated |

Source: patent US20170058268
